For this assay, the target named is KRAS, mGppNHp-bound (human) (UniProt P01116). The experiment in a line: fluorescence polarisation; MBP-tagged effector domain (0.05-100 μM) titrated to 1 μM RAS-mGppNHp; 50 mM Tris/HCl pH 7.5, 100 mM NaCl, 5 mM MgCl2, 3 mM dithiothreitol, 25°C; quadratic ligand binding equation.

B1: RAS association (RA) domain of RASSF5, MBP fusion (domain or fragment)
chain: EETQRPPTLQEIKQKIDSYNTREKNCLGMKLSEDGTYTGFIKVHLKLRRPVTVPAGIRPQSIYDAIKEVNLAATTDKRTSFYLPLDAIKQLHISSTTTVSEVIQGLLKKFMVVDNPQKFALFKRIHKDGQVLFQKLSIADRPLYLRLLAGPDTEVLSFV
For the molecule B1, the dissociation constant (Kd) is 421 nM.

The term Kd denotes the constant that tells how readily two partners part at equilibrium. A lower Kd goes with a tighter complex.
